# In PMC6158211:
# B1: 3xFlag-UBL3 (wild-type ubiquitin-like 3/membrane-anchored Ub-fold protein) [not stated] / ATXN10 [human (endogenous in MDA-MB-231)] (parent)
# chain 1: MSSNVPADMINLRLILVSGKTKEFLFSPNDSASDIAKHVYDNWPMDWEEEQVSSPNILRLIYQGRFLHGNVTLGALKLPFGKTTVMHLVARETLPEPNSQGQRNREKTGESNCCVIL
# chain 2: MAAPRPPPARLSGVMVPAPIQDLEALRALTALFKEQRNRETAPRTIFQRVLDILKKSSHAVELACRDPSQVENLASSLQLITECFRCLRNACIECSVNQNSIRNLDTIGVAVDLILLFRELRVEQESLLTAFRCGLQFLGNIASRNEDSQSIVWVHAFPELFLSCLNHPDKKIVAYSSMILFTSLNHERMKELEENLNIAIDVIDAYQKHPESEWPFLIITDLFLKSPELVQAMFPKLNNQERVTLLDLMIAKITSDEPLTKDDIPVFLRHAELIASTFVDQCKTVLKLASEEPPDDEEALATIRLLDVLCEMTVNTELLGYLQVFPGLLERVIDLLRVIHVAGKETTNIFSNCGCVRAEGDISNVANGFKSHLIRLIGNLCYKNKDNQDKVNELDGIPLILDNCNISDSNPFLTQWVIYAIRNLTEDNSQNQDLIAKMEEQGLADASLLKKVGFEVEKKGEKLILKSTRDTPKP
# B2: 3xFlag-UBL3 (wild-type ubiquitin-like 3/membrane-anchored Ub-fold protein) [not stated] / TUBB4A [human (endogenous in MDA-MB-231)] (parent)
# chain 1: B1 chain 1
# chain 2: MREIVHLQAGQCGNQIGAKFWEVISDEHGIDPTGTYHGDSDLQLERINVYYNEATGGNYVPRAVLVDLEPGTMDSVRSGPFGQIFRPDNFVFGQSGAGNNWAKGHYTEGAELVDAVLDVVRKEAESCDCLQGFQLTHSLGGGTGSGMGTLLISKIREEFPDRIMNTFSVVPSPKVSDTVVEPYNATLSVHQLVENTDETYCIDNEALYDICFRTLKLTTPTYGDLNHLVSATMSGVTTCLRFPGQLNADLRKLAVNMVPFPRLHFFMPGFAPLTSRGSQQYRALTVPELTQQMFDAKNMMAACDPRHGRYLTVAAVFRGRMSMKEVDEQMLSVQSKNSSYFVEWIPNNVKTAVCDIPPRGLKMAATFIGNSTAIQELFKRISEQFTAMFRRKAFLHWYTGEGMDEMEFTEAESNMNDLVSEYQQYQDATAEEGEFEEEAEEEVA
# Variants of: B1
# Experiment: Flag antibody-bead pull-down, on-bead digestion, LC-MS/MS label-free quantification
# Conditions: with ATXN10 [human (endogenous in MDA-MB-231)]; lysates of MDA-MB-231 cells; triplicate pull-downs; read off a plot
row,screen value [log2],Variant
1,5.1,chain 1 C113A C114A

# Variants of: B2
# Experiment: as above
# Conditions: with TUBB4A [human (endogenous in MDA-MB-231)]; lysates of MDA-MB-231 cells; triplicate pull-downs; read off a plot
row,screen value [log2],Variant
1,3.2,chain 1 C113A C114A
